Drawing on PMC8464079, this text covers Kd for one molecule.

Holding throughout (assay): fluorescence polarization
(In general: Fluorescence polarisation rises when a labelled molecule tumbles more slowly, as on binding a larger partner.)

For one data set, the target named is T1, MUT-#12 (K513E) (Caenorhabditis elegans, UniProt Q09487 172-535, K513E).
T1 sequence: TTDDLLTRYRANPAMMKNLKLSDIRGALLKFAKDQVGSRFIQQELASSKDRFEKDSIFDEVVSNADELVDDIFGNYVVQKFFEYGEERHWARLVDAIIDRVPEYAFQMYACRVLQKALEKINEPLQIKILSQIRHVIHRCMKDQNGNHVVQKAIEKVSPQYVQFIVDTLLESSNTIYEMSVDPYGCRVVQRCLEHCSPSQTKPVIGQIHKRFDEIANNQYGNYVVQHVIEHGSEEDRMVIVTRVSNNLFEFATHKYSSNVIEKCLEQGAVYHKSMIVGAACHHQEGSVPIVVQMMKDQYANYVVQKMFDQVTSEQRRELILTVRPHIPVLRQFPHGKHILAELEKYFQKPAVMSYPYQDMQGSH

Another data set has as its target T2, MUT-#11 (K513A) (Caenorhabditis elegans, UniProt Q09487 172-535, K513A).
T2 sequence: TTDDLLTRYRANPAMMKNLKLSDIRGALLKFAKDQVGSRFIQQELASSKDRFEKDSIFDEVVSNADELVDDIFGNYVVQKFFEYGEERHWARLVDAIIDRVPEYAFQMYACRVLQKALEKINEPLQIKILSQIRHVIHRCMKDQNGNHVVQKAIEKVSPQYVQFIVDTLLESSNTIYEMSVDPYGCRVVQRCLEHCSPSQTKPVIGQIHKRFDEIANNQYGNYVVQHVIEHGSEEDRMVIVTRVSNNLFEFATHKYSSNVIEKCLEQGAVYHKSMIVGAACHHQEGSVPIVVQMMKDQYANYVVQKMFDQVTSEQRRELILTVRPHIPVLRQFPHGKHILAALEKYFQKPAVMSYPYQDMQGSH

The target in another data set is T3, MUT-#14 (Q476A/K513A) (Caenorhabditis elegans, UniProt Q09487 172-535, Q476A;K513A).
T3 sequence: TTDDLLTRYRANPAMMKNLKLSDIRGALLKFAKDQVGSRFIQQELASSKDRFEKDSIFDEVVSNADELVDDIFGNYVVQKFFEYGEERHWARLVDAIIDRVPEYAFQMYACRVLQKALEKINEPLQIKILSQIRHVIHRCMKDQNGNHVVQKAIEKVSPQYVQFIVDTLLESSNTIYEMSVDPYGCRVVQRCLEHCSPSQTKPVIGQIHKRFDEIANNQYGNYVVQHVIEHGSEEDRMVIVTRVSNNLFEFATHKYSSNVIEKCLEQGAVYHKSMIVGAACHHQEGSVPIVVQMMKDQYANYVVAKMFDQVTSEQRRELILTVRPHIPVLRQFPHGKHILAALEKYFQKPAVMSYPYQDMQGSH

The next data set deals with T4, MUT-4C (Caenorhabditis elegans, UniProt Q09487 172-535, N318C;H319Y;Q322R).
T4 sequence: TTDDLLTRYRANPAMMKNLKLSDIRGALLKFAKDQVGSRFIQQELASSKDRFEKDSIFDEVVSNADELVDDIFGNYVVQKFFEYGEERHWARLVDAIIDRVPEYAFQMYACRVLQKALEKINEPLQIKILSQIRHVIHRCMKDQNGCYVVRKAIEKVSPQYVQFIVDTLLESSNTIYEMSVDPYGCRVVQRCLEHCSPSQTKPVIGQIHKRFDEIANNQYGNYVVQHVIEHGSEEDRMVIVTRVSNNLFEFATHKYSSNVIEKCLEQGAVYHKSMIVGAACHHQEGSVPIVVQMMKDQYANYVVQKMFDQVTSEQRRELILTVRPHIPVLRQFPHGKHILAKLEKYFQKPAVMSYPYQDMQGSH

The target in a further data set is T5, MUT-#10 (Q476E) (Caenorhabditis elegans, UniProt Q09487 172-535, Q476E).
T5 sequence: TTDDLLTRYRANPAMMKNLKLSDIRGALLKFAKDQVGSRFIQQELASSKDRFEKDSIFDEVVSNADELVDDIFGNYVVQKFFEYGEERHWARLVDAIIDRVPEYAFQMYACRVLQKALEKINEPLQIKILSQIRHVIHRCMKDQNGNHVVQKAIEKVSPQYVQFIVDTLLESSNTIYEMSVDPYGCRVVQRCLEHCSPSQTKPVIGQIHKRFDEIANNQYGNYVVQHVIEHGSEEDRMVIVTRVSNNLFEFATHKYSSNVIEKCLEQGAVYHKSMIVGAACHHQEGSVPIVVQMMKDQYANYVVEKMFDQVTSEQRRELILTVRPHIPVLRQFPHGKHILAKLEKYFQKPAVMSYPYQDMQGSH

In a further data set the target is T6, MUT-4N (Caenorhabditis elegans, UniProt Q09487 172-535, N318A;H319A;Q322A).
T6 sequence: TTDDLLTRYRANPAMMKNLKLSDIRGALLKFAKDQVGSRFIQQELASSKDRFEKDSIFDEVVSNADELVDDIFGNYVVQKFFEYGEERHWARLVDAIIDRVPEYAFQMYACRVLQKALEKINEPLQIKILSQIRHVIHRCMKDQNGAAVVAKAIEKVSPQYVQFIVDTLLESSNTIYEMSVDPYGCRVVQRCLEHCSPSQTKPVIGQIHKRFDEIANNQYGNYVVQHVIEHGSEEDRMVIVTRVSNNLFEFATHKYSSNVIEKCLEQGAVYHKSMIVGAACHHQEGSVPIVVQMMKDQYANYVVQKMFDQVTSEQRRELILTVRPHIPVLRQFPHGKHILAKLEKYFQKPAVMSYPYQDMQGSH

B1: PBE-5A FAM (ssRNA)
RNA: UGUAAAUA
B1: the Kd with MUT-#12 (K513E) worked out at 209 ± 29.1 nM; with MUT-#11 (K513A) it was 133 ± 29.8 nM; with MUT-#14 (Q476A/K513A) it was 210 ± 27.4 nM; with MUT-4C it was 16.3 ± 4.64 nM; in the data set with MUT-#10 (Q476E), 519 ± 63.1 nM; in the data set with MUT-4N it was 161 ± 22 nM.

Usually Kd stands for the concentration at which binding is half-saturated.
